Measured values reported in patent publication US20130045219A1 (UCB, published 2013).

T1: CD154 expressed on D1.1 Jurkat cells (UniProt P29965 1-261, limits assumed)
T1 sequence (looked up): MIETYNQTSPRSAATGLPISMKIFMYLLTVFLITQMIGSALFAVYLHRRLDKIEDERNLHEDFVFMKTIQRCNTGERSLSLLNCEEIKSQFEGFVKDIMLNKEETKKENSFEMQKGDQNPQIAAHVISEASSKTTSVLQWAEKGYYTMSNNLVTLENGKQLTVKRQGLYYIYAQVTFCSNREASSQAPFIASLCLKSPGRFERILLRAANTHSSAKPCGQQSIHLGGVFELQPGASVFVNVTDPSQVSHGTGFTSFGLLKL

T2: soluble human CD154 protein (extracellular domain) (human, UniProt P29965 116-261)
T2 construct: also called sCD154; recombinant extracellular domain of human CD154
T2 sequence: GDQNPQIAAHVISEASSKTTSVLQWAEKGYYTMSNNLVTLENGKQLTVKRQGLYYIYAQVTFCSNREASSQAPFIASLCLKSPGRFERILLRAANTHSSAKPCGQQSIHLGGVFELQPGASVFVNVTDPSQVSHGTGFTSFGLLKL


Legend:
[1] = biological target: T1, CD154 expressed on D1.1 Jurkat cells; assay: cell-based or functional assay
[2] = biological target: T1, CD154 expressed on D1.1 Jurkat cells; assay: flow cytometry: inhibition of the binding of hCD40-mFc-PE to CD154-expressing D1.1 Jurkat cells by serially diluted antibody (Example 5)
Description: A flow cytometry-based assay was used to assess the binding of labeled CD40 to CD154-expressing D1.1 cells. D1.1 Jurkat cells (American Type Culture Collection) were maintained in RPMI 1640 medium (Gibco, 31870-025)) containing 10% (v/v) fetal calf serum (FCS), 2 mM glutamine (Invitrogen, 23030024), 1 mM sodium pyruvate (Invitrogen, 11360-039), 1% (v/v) D-(+)-glucose (Sigma, G8769) & 10 mM HEPES (Sigma, H0887). At time of assay, 100,000 D1.1 cells were incubated in 100 μL RPMI 1640 medium+10% FCS, in the presence or absence of serially diluted anti-CD154 antibody for 15 minutes at room temperature. 5 μL of a 1:75 dilution of hCD40-mFc-PE (Alexis Corp, ANC-504-050) was then added and incubated for a further 30 minutes at room temperature. After washing twice in phosphate-buffered saline (PBS) containing 1% (w/v) bovine serum albumin (BSA fraction V, Serologicals Proteins Inc, 81-068-5) and 0.02% (w/v) sodium azide (BDH, 103692K), cells were resuspended in 200 μL PBS/1% BSA/0.02% sodium azide and flow cytometry performed on a Becton Dickinson FACScan. The values for geometric mean fluorescence (FL2) were assessed in all cases.

[3] = biological target: T2, soluble human CD154 protein …; assay: Biacore (SPR): antibody or fragment captured on immobilized anti-human IgG (Fc- or Fab'-specific) F(ab')2, recombinant extracellular domain of human CD154 titrated over it (Example 4)
Description: Catalogue Number: BR-1001-88, Biacore AB, Uppsala, Sweden. Buffer stored at 4° C. Immobilization buffer is Acetate 5.0 (being 10 mM sodium acetate pH 5.0). Catalogue number: BR-1003-51, Biacore AB, Uppsala, Sweden. Buffer stored at 4° C. Ligand capture: Affinipure F(ab′)₂ fragment goat anti-human IgG, Fab′ fragment specific (Catalogue number: 109-006-097) or Fc fragment specific (Catalogue number: 109-006-098), Jackson ImmunoResearch Inc (Pennsylvania, USA). Reagents stored at 4° C. […] Analyte: Recombinant extracellular domain of human CD154. Material was prepared at 2 mg/mL (40 μM) in phosphate-buffered saline, stored at 4° C., and diluted in HBE-EP running buffer for the assays. […] Regeneration Solution: 40 mM HCl prepared by dilution with distilled water from an 11.6 M stock solution (BDH, Poole, England. Catalogue number: 101254H). 5 mM NaOH prepared by dilution with distilled water from a 50 mM stock solution. Catalogue number: BR-1003-58, Biacore AB, Uppsala, Sweden. Assay Method: BIA (Biamolecular Interaction Analysis) was performed using a Biacore® 3000 (Biacore AB). Affinipure F(ab′)₂ fragment goat anti-human IgG, Fc- or Fab′-fragment specific (Jackson ImmunoResearch) were immobilized on a CM5 Sensor Chip via amine coupling chemistry to a capture level of ≈6000 response units (RUs). HBS-EP buffer (10 mM HEPES pH 7.4, 0.15 M NaCl, 3 mM EDTA, 0.005% Surfactant P20, Biacore AB) was used as the running buffer with a flow rate of 10 μl/min. Anti-CD154 antibodies or Fab fragments were used at concentrations such that, once captured by the immobilized anti-human IgG-Fc (or anti-human IgG Fab′) surface, gave a signal of ≈200 RUs. Human CD154 was titrated over the captured antibody, at various concentrations. 90 μL of CD154 was injected over the surface (association phase), followed by a 240 second dissociation phase, all at a flow rate of 30 μl/min. […] Background subtraction binding curves were analyzed using the BIAevaluation software (version 3.2) following standard procedures. Kinetic parameters were determined from the fitting algorithm.

[4] = biological target: T1, CD154 expressed on D1.1 Jurkat cells; assay: flow cytometry competition binding assay: serially diluted antibody against biotinylated 342 Fab on CD154-expressing D1.1 Jurkat cells, streptavidin-R-phycoerythrin detection (Example 6)
Description: A flow cytometry-based assay was used to assess the binding of anti-CD154 antibody to CD154-expressing D1.1 cells. D1.1 Jurkat cells (American Type Culture Collection) were maintained in RPMI 1640 medium (Gibco, 31870-025) containing 10% (v/v) fetal calf serum (FCS), 2 mM glutamine (BioWhittaker, 17-605E) and […] (Mediatech, 30002107). […] The cells were washed three times in FACS buffer with centrifugation at 290×g for 3 minutes in between washes. A 1:500 dilution of streptavadin-R-phycoerythrin conjugate (Jackson Immunoresearch, 016-110-084) in […] FACS buffer was added and the cells were incubated for one hour at 4° C. The cells were washed once and fixed in PBS with 3% formaldehyde at room temperature for 10 minutes. The cells were resuspended in FACS buffer and run on a FacsCalibur (BD). The values for geometric mean fluorescence (FL2) were assessed in all cases.

| Binder | IC50 of inhibition of ICAM-1 (CD54) upregulation on CD40-expressing Ramos B cells co-cultured with CD154-expressing D1.1 Jurkat cells [1] | IC50 [2] | Kd [3] | IC50 [4] |
| --- | --- | --- | --- | --- |
| 342 Di-Fab' (other, the two Fab' are cross-linked at the hinge; the linker is not described for this molecule) heavy chain (Fab'): EVQLVESGGGLVQPGGSLRLSCAVSGFSSTNYHVHWVRQAPGKGLEWMGVIWGDGDTSYNSVLKSRFTISRDTSKNTVYLQMNSLRAEDTAVYYCARQLTHYYVLAAWGQGTLVTVSSASTKGPSVFPLAPSSKSTSGGTAALGCLVKDYFPEPVTVSWNSGALTSGVHTFPAVLQSSGLYSLSSVVTVPSSSLGTQTYICNVNHKPSNTKVDKKVEPKSCDKTHTCAA light chain: DIQMTQSPSSLSASVGDRVTITCRASEDLYYNLAWYQRKPGKAPKLLIYDTYRLADGVPSRFSGSGSGTDYTLTISSLQPEDFASYYCQQYYKFPFTFGQGTKVEIKRTVAAPSVFIFPPSDEQLKSGTASVVCLLNNFYPREAKVQWKVDNALQSGNSQESVTEQDSKDSTYSLSSTLTLSKADYEKHKVYACEVTHQGLSSPVTKSFNRGEC | 0.022 µg/mL | 0.009 µg/mL | – | – |
| 342 Di-Fab'-PEG (other, the two Fab' are cross-linked and PEGylated; paragraph 96 describes DFM-PEG as two Fab' cross-linked with a PEGylated dimaleimide bridge) heavy chain (Fab'): EVQLVESGGGLVQPGGSLRLSCAVSGFSSTNYHVHWVRQAPGKGLEWMGVIWGDGDTSYNSVLKSRFTISRDTSKNTVYLQMNSLRAEDTAVYYCARQLTHYYVLAAWGQGTLVTVSSASTKGPSVFPLAPSSKSTSGGTAALGCLVKDYFPEPVTVSWNSGALTSGVHTFPAVLQSSGLYSLSSVVTVPSSSLGTQTYICNVNHKPSNTKVDKKVEPKSCDKTHTCAA light chain: DIQMTQSPSSLSASVGDRVTITCRASEDLYYNLAWYQRKPGKAPKLLIYDTYRLADGVPSRFSGSGSGTDYTLTISSLQPEDFASYYCQQYYKFPFTFGQGTKVEIKRTVAAPSVFIFPPSDEQLKSGTASVVCLLNNFYPREAKVQWKVDNALQSGNSQESVTEQDSKDSTYSLSSTLTLSKADYEKHKVYACEVTHQGLSSPVTKSFNRGEC | 0.058 µg/mL | 0.032 µg/mL | 45 pM | 26 pM |
| 342 Tri-Fab' (other, the three Fab' are cross-linked at the hinge; the linker is not described) heavy chain (Fab'): EVQLVESGGGLVQPGGSLRLSCAVSGFSSTNYHVHWVRQAPGKGLEWMGVIWGDGDTSYNSVLKSRFTISRDTSKNTVYLQMNSLRAEDTAVYYCARQLTHYYVLAAWGQGTLVTVSSASTKGPSVFPLAPSSKSTSGGTAALGCLVKDYFPEPVTVSWNSGALTSGVHTFPAVLQSSGLYSLSSVVTVPSSSLGTQTYICNVNHKPSNTKVDKKVEPKSCDKTHTCAA light chain: DIQMTQSPSSLSASVGDRVTITCRASEDLYYNLAWYQRKPGKAPKLLIYDTYRLADGVPSRFSGSGSGTDYTLTISSLQPEDFASYYCQQYYKFPFTFGQGTKVEIKRTVAAPSVFIFPPSDEQLKSGTASVVCLLNNFYPREAKVQWKVDNALQSGNSQESVTEQDSKDSTYSLSSTLTLSKADYEKHKVYACEVTHQGLSSPVTKSFNRGEC | 0.031 µg/mL | 0.009 µg/mL | – | – |
| 342 Fab'-PEG (Fab, V domains shown, PEG-maleimide on the single cysteine at the hinge) VH: EVQLVESGGGLVQPGGSLRLSCAVSGFSSTNYHVHWVRQAPGKGLEWMGVIWGDGDTSYNSVLKSRFTISRDTSKNTVYLQMNSLRAEDTAVYYCARQLTHYYVLAAWGQGTLVTVSS VL: DIQMTQSPSSLSASVGDRVTITCRASEDLYYNLAWYQRKPGKAPKLLIYDTYRLADGVPSRFSGSGSGTDYTLTISSLQPEDFASYYCQQYYKFPFTFGQGTKVEIKR | 0.127 µg/mL | 0.035 µg/mL | 50 pM | 113 pM |

More lines, now with the values ahead:

| IC50 of inhibition of ICAM-1 (CD54) upregulation on CD40-expressing Ramos B cells co-cultured with CD154-expressing D1.1 Jurkat cells [1] | IC50 [2] | Kd [3] | IC50 [4] | Binder |
| --- | --- | --- | --- | --- |
| 0.036 µg/mL | 0.008 µg/mL | – | – | 342 Tri-Fab'-PEG (other, the three Fab' are cross-linked and PEGylated; the chemistry is not described) heavy chain (Fab'): EVQLVESGGGLVQPGGSLRLSCAVSGFSSTNYHVHWVRQAPGKGLEWMGVIWGDGDTSYNSVLKSRFTISRDTSKNTVYLQMNSLRAEDTAVYYCARQLTHYYVLAAWGQGTLVTVSSASTKGPSVFPLAPSSKSTSGGTAALGCLVKDYFPEPVTVSWNSGALTSGVHTFPAVLQSSGLYSLSSVVTVPSSSLGTQTYICNVNHKPSNTKVDKKVEPKSCDKTHTCAA light chain: DIQMTQSPSSLSASVGDRVTITCRASEDLYYNLAWYQRKPGKAPKLLIYDTYRLADGVPSRFSGSGSGTDYTLTISSLQPEDFASYYCQQYYKFPFTFGQGTKVEIKRTVAAPSVFIFPPSDEQLKSGTASVVCLLNNFYPREAKVQWKVDNALQSGNSQESVTEQDSKDSTYSLSSTLTLSKADYEKHKVYACEVTHQGLSSPVTKSFNRGEC |
| 0.048 µg/mL | 0.025 µg/mL | – | 35 pM | 342 aglycosyl IgG4 (antibody, V domains shown, S228P and T299A (Kabat EU) are contained in SEQ ID NO: 72; not N-glycosylated, also called aglycosylated hu342; hu342 aglyP-huIgG4) VH: EVQLVESGGGLVQPGGSLRLSCAVSGFSSTNYHVHWVRQAPGKGLEWMGVIWGDGDTSYNSVLKSRFTISRDTSKNTVYLQMNSLRAEDTAVYYCARQLTHYYVLAAWGQGTLVTVSS VL: DIQMTQSPSSLSASVGDRVTITCRASEDLYYNLAWYQRKPGKAPKLLIYDTYRLADGVPSRFSGSGSGTDYTLTISSLQPEDFASYYCQQYYKFPFTFGQGTKVEIKR |
